Assay results from patent US20230064703A1 (NANJING GENSCRIPT BIOTECH, published 2023).
Substitutions are numbered along the chain they refer to.

B1: anti-GITR mouse monoclonal antibody 225H7D12 (antibody, V domains shown)
VH: QVQLQQSGAEVMKPGASVKLSCKTTGYRFTGYWIEWVKQRPGHGLEWIGEILPGSGVSNNNEKFRDKATFTADTSSNTAYIQLSSLTTDDSAIYYCARKASYYTMDYWGQGTSVTVSS
VL: QIVLTQSPAIMSASLGERVTMTCTASSSVSSFYFHWYQQKPGSSPKLWIYSISNLASGVPTRFSGSGSGTSYSLTISSMEAEDAATYYCHQYHRSPRTFGGGTKLEIK
B2: anti-GITR mouse monoclonal antibody 134D7B3 (antibody, V domains shown)
VH: QVQLQQSGAELVRPGTSVKVSCKASGYAFNNYVIEWVKQRPGQGLEWIGVIYPGNGGSDYNEKFKVKAKLTADKSSSTAYMQLSSLTSDDSAVYFCARFYYFGSSYAMDYWGQGTSVTVSS
VL: DIQMTQTTSSLSASLGDRVTISCRASQDISNYLNWYQQKPDGTIKLLIYYTSRLHSGVPSRFSGSGSGTDYSLTITNLEQEDIATYFCQQGNTLPFTFGSGTKLEIK
B3: anti-GITR mouse monoclonal antibody 45F1F3 (antibody, V domains shown)
VH: DVQLQESGPGLVKPSQSLSLTCTVTGYSITIDYAWNWIRQFPGNKLEWMGYISNSGYTSYNPSLKSRISFTRDTSKNQFFLQLNSVTPEDSATYYCTRSGHYDLFDYWGQGTTLTVSS
VL: DVVMTQAPLTLSVTIGQPASISCKSSQSLFDRDGKTYLSWLLERPGQSPKRLIYLVSNLDSGVPDRFTGSGSGTDFTLKISRVEAEDLGVYYCWQGTHFPYTFGGGTKVEMK
B4: anti-GITR mouse monoclonal antibody 223F12C4 (antibody, V domains shown)
VH: QVQLQQSGAELVKPGASVKVSCKASGYSFTSYWIHWVKQRPGQGLEWIGRIHPSDGDIDHNEKFKGKATLTVDKSSSTAYMQLTSLTSEDSAVYYCLCYIMDYWGQGTSVTVSS
VL: DIQMNQSPSSLSASLGDTIAITCHASQNINVWLSWYQQKPGNIPKLLIYKAAKLQTGVPSRFSGSGSGTGFTLTISSLQPEDIATYYCHQGQDYPLTFGAGTKLELK
B5: anti-GITR mouse monoclonal antibody 163H12G7 (antibody, V domains shown)
VH: QVQLQQSGAELASPGASVKMSCKASGYTFSTYTVHWVKQRPGQGLEWIGYINPASGYTNYNQKFKDRATLTADRSSTTAYMQLSGLTSEDSAVFYCARWSYWYFDVWGTGTTVTVSS
VL: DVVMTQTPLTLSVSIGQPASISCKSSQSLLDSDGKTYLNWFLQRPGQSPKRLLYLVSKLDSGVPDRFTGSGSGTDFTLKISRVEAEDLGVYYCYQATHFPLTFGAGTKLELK
B6: chimeric antibody 225H7D12 (human IgG1) (antibody, V domains shown)
VH: B1 VH
VL: QIVLTQSPAIMSASLGERVTMTCTASSSVSSFYFHWYQQKPGSSPKLWIYSISNLASGVPTRFSGSGSGTSYSLTISSMEAEDAATYYCHQYHRSPRTFGGGTKLEIKR
B7: chimeric antibody 45F1F3 (human IgG1) (antibody, V domains shown)
VH: B3 VH
VL: DVVMTQAPLTLSVTIGQPASISCKSSQSLFDRDGKTYLSWLLERPGQSPKRLIYLVSNLDSGVPDRFTGSGSGTDFTLKISRVEAEDLGVYYCWQGTHFPYTFGGGTKVEMKR
B8: chimeric antibody 270C5C10(Ha-L) (human IgG1) (antibody, V domains shown)
VH: EVQLQQSGPEVVKPGASVKISCKASGYTFTDNYMNWAKQSQGKSLEWIGDINPNNGGSRYKEKFKDKATLTVDKSSRTAYMELRSLTSEDSAVYYCANPGSYGFAYWGQGTLVTVSA
VL: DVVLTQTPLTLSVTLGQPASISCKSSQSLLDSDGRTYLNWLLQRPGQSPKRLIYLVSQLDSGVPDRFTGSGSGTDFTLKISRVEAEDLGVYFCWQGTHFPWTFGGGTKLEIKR
B9: humanized antibody 45F1F3 VH1.4 + VL1.1 (antibody, V domains shown)
VH: DVQLQESGPGLVKPSQTLSLTCTVTGYSITIDYAWNWIRQPPGKGLEWMGYISNSGYTSYNPSLKSRITFSRDTSKNQFFLKLSSVTAADTAVYYCTRSGHYDLFDYWGQGTTVTVSS
VL: B3 VL with A7S, T10S, S12P, I15L, E43Q, K50R, T68S, L88V, M111I
B10: humanized antibody 45F1F3 VH1.3 + VL1.1 (antibody, V domains shown)
VH: B9 VH with D1Q, I68V, F70I
VL: B3 VL with A7S, T10S, S12P, I15L, E43Q, K50R, T68S, L88V, M111I
B11: humanized antibody 225H7D12 VH1.1 + VL1.2 (antibody, V domains shown)
VH: QVQLVQSGAEVKKPGASVKVSCKTTGYRFTGYWIEWVRQAPGQGLEWIGEILPGSGVSNNNEKFRDRATMTADTSISTAYMELSRLRSDDTAVYYCARKASYYTMDYWGQGTLVTVSS
VL: DIQMTQSPSSLSASVGDRVTITCTASSSVSSFYFHWYQQKPGKAPKLWIYSISNLASGVPSRFSGSGSGTSYTLTISSLQPEDFATYYCHQYHRSPRTFGGGTKLEIK
B12: humanized antibody 225H7D12 VH1.3 + VL1.2 (antibody, V domains shown)
VH: B11 VH with T24A, T25S, R38K, S77N
VL: B11 VL
B13: humanized antibody 225H7D12 VH1.4 + VL1.2 (antibody, V domains shown)
VH: B11 VH with R38K, M70F, S77N
VL: B11 VL
B14: humanized antibody 270C5C10 VH1.2 + VL1 (antibody, V domains shown)
VH: QVQLVQSGAEVKKPGASVKVSCKASGYTFTDNYMNWVRQAPGQSLEWIGDINPNNGGSRYKEKFKDRATLTVDTSIRTAYMELSRLRSDDTAVYYCANPGSYGFAYWGQGTLVTVSS
VL: DVVMTQSPLSLPVTLGQPASISCKSSQSLLDSDGRTYLNWFQQRPGQSPRRLIYLVSQLDSGVPDRFSGSGSGTDFTLKISRVEAEDVGVYYCWQGTHFPWTFGGGTKLEIK
B15: humanized antibody 270C5C10 VH1.4 + VL1 (antibody, V domains shown)
VH: B14 VH with V37A, A40S
VL: B14 VL

biological target: T1, GITR expressed on the effector cell line of the reporter gene assay; assay: cell-based or functional assay

**Q.** B1 was tested. Which “EC50, GITR functional reporter gene assay (luciferase)” value (“EC50 … (luciferase)” for short) did it give?
**A.** 0.0796 µg/mL

**Q.** How did the “EC50 … (luciferase)” value turn out when B2 was run?
**A.** 1.05 µg/mL

**Q.** Which “EC50 … (luciferase)” value does the source give for B3 here?
**A.** 0.0145 µg/mL

**Q.** B4 was tested. Which “EC50 … (luciferase)” value did it give?
**A.** 0.151 µg/mL

**Q.** How did the “EC50 … (luciferase)” value turn out when B5 was run?
**A.** 0.0137 µg/mL

biological target: T1, GITR expressed on the effector cell …; assay: cell-based or functional assay; remark: another data set of the same source

**Q.** Which results are given for B6?
**A.** Bottom, GITR functional reporter gene assay: 16800; EC50, GITR functional reporter gene assay: 0.0796 µg/mL; LogEC50, GITR functional reporter gene assay: -1.1; Span, GITR functional reporter gene assay: 37000; Top, GITR functional reporter gene assay: 53800

**Q.** What does the source list for B7?
**A.** Bottom, GITR functional reporter gene assay: 16300; EC50, GITR functional reporter gene assay: 0.0145 µg/mL; LogEC50, GITR functional reporter gene assay: -1.84; Span, GITR functional reporter gene assay: 32000; Top, GITR functional reporter gene assay: 48300

**Q.** B8 was tested. Which “Bottom, GITR functional reporter gene assay” value did it give?
**A.** 18000

**Q.** What about the “EC50, GITR functional reporter gene assay” value of the same binder?
**A.** 0.386 µg/mL

**Q.** What about the “LogEC50, GITR functional reporter gene assay” value of the same binder?
**A.** -1.41

**Q.** And the “Span, GITR functional reporter gene assay” value?
**A.** 31500

**Q.** What about the “Top, GITR functional reporter gene assay” value of the same binder?
**A.** 49500

biological target: T1, GITR expressed on the effector cell …; assay: cell-based or functional assay; remark: another data set of the same source

**Q.** How did the “EC50, GITR functional reporter gene assay (GenScript, NFkB luciferase)” value (from here on “EC50 … (GenScript, NFkB luciferase)”) turn out when B6 was run?
**A.** 1.26 µg/mL

**Q.** How did the “EC50 … (GenScript, NFkB luciferase)” value turn out when B7 was run?
**A.** ~1.09 µg/mL

**Q.** With B9 as the binder, how does the “EC50 … (GenScript, NFkB luciferase)” value read?
**A.** 1.09 µg/mL

**Q.** How did the “EC50 … (GenScript, NFkB luciferase)” value turn out when B10 was run?
**A.** 1.08 µg/mL

**Q.** B11 was tested. Which “EC50 … (GenScript, NFkB luciferase)” value did it give?
**A.** 1.17 µg/mL

**Q.** How did the “EC50 … (GenScript, NFkB luciferase)” value turn out when B12 was run?
**A.** 1.18 µg/mL

**Q.** Which “EC50 … (GenScript, NFkB luciferase)” value does the source give for B13 here?
**A.** 1.46 µg/mL

**Q.** Which “EC50 … (GenScript, NFkB luciferase)” value does the source give for B8 here?
**A.** ~0.0374 µg/mL

**Q.** With B14 as the binder, how does the “EC50 … (GenScript, NFkB luciferase)” value read?
**A.** 0.0745 µg/mL

**Q.** B15 was tested. Which “EC50 … (GenScript, NFkB luciferase)” value did it give?
**A.** ~0.0355 µg/mL
